Laboratory results: paper PMC6050537, “Inhibition of low-density lipoprotein receptor degradation with a cyclic peptide that disrupts the homodimerization of IDOL E3 ubiquitin ligase† †Electronic supplementary information (ESI) available. See DOI: 10.1039/c8sc01186a” (Chemical Science, 2018)

Key:
Full length IDOL (1–445) [1] = biological target: T1, Full length IDOL (1–445) (UniProt Q8WY64 1-445, NT-647-NHS dye (only the labelled copy in the MST assays)); test: MST; Monolith NT.115; 6× His IDOL labelled with NT-647-NHS dye at 50 nM, peptides titrated; 10 mM HEPES, 300 mM NaCl, 1 mM TCEP, 0.05% TWEEN-20, pH 8.0, 5% DMSO; conditions: both partners purified
T1 construct: IDOL (inducible degrader of LDLR, MYLIP), E3 ubiquitin ligase, residues 1-445; The His tag is TEV cleavable, but SPR captures the protein by it and the MST methods name 6× His IDOL; In the homodimerization MST, unlabelled IDOL was titrated into dye-labelled IDOL; also called inducible degrader of LDLR; 6× His IDOL; not shown: His6, N-terminal, kept

Full length IDOL (1–445) [2] = biological target: T1, Full length IDOL (1–445); test: cell-based or functional assay

Kd (Full length IDOL (1–445) [1]): 4.6 µM
EC50 of Tat-RINGPep2 (0–35 μM) on LDLR protein levels in HepG2 cells; blocks IDOL homodimerization (Full length IDOL (1–445) [2]): 15 to 20 µM
B1: RINGPep2 (cyclo-CF-Cha-LYT) (peptide)
chain: CFXLYT
HELM: PEPTIDE1{C.F.[Cha].L.Y.T}$PEPTIDE1,PEPTIDE1,1:R1-6:R2$$$V2.0
SMILES: CC(C)C[C@@H]1NC(=O)[C@H](CC2CCCCC2)NC(=O)[C@H](Cc2ccccc2)NC(=O)[C@H](CS)NC(=O)[C@H]([C@@H](C)O)NC(=O)[C@H](Cc2ccc(O)cc2)NC1=O
